Reference: the nanobody polyreactivity screen of Harvey et al. (2022)

Test: yeast display, Sf9 membrane polyspecificity reagent, FACS + sequencing; frameworks hold sequencing errors
How it was run: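 Synthetic nanobody libraries on Saccharomyces cerevisiae BJ5465 were galactose-induced for 36–48 hours, stained 1 hour at 4 °C with 10% biotinylated, detergent-solubilized Sf9 membrane reagent and enriched on streptavidin microbeads. FACS then separated cells into low and high (top ~1%) gates by anti-HA (expression) and streptavidin (reagent binding) fluorescence. Genes were colony-PCR amplified, MiSeq 2 × 250 sequenced and CDR-length filtered. A clone's polyreactivity label is that of its gate of origin.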

Sequence | polyreactivity (PSR sort gate)
QVQLVESGGGLVQAGGSLRLSCAASGRIFGYYAMGWYRQAPGKERELVAAIYSGGSTYYADSVKGRFTISRDNAKNTVYLQMNSLKPEDTAVYYCAAYYYGWYTPSQSPKYDYWGQGTQVTVSS | high polyreactivity
QVQLVESGGGLVQAGGSLRLSCAASGSIFVVYAMGWYRQAPGKERELVASIRTGGSTNYADSVKGRFTISRDNAKNTVYLQMNSLKPEDTAVYYCAAASWNSNSHYYVARYYYWGHGTQVTVSS | high polyreactivity
QVQLVESGVGLVQAGGSLRLICAASGITFSGYDMVWYRQAPWKERELVAAISGSGTSTYYADSEKGRFTISRDKAKNTVYLQMNSLKPEDTAVYYCAARDAIFGSDYWGQGTQVTVSS | high polyreactivity
QLQLQESIGGLVQAGGSLRMSCAASGTIFHFHIMGWYRQAPGKEREFVAAISYGTSTYYADSVKGRFTISRDNAKNTVYLHMNSQKPEDTAVYYCAVYDYLEVYCWYWGQGTQVTLSS | low polyreactivity
QVQLVESGGGLVQAGGSLRLSCAASGSTFIANAMGWYRKAPGKERELVAAISQSGDSTYYADSVKGRFTISRENAKNTVYLQMNSMKPEDTAVYYCAAEDVDGYEYWGQGTQVTVSS | high polyreactivity
QVQLVESGGGLVQAGGSLRLSCAASGRIFRGNTMGWYRQAPGKERELVAAITIRGRTYYADSVKGRFTISRDNAKNTVYLQMNSLKPEDTAVYYCAVASAGDNDYWGQGTQVTVSS | low polyreactivity
QVQLVESGGGLVQPGGSLRLSCAASGFIFSYYAMGWYRQAPGKERELVAAITQSGGGTYYADSVKGRFTISRDNAKNTVYLQMNSLKPEDTAVYYCAVLYYQTRQVYSGYSRYWLYSSRYDYWGQGTQVTVSS | high polyreactivity
QVQLVESGGGLVQAGGSLLLSCAASGSTFAWYAMGWNRQAPGKERELVAAISRTGRTYYADSVKGRFTISRDNAKNTVYLEMNSLKPEDTAVYYCAARIERFYRDQRYDYWGQGTQVTVSS | high polyreactivity
QVQLQESGGLVQAGGMRLSCEASGSVSYQEAMGWYRQAPGKERELVATISFGANTNYADIVKGRFTISRDNAKNTVYLQMNSLKPEDTAVYYCAAESLFDDYYGYWGQGTQVTVSS | low polyreactivity
QVQLVESGGGLVQAGGSLRLSCAASGFTFVVYAMGWYRQAPGKERELVAAIRRTGGSTYYADSVKGRFTISRDNAKNTVYLQMNSLKPEDTAVYYCAAHAISYQSRYRYRYGSVDYWGQGTQVTVSS | high polyreactivity
QVQLVESGGGLVQAGGSLRLSCAASGFTLYGYTMGWYRQAPGKERELVAAISGSGGRTYYADSVKGRFTISRDNAKNTVYLQMNSLKPEDTAVYYCAARHHPEYYYWGQGTQVTVSS | high polyreactivity
QVQLVESDGGLVQAGGSLRLSCAASGIIFGYYVMGWYRPAPGKERELVASITSGGSTNYADSVKGRFTISRDNAKNTVYFQMNSLKPEDTAVYYCAAEERTDTIPGWRYPHDYWGQGTQVTVSS | low polyreactivity
QVQLVESGVGLVQAGVILRLSCAASGRTFRRNAMGWYRHAPGKERELVAAISWRGGSTYYADSVKGRFTISRDNAKNTVYLQLNSMKPEDTAVYYFAAGFESYDYWGQGTQVTVSS | high polyreactivity
QVQLVESGGGLVKAGGTLSLSCAASGFIFGFNAMGWYRQAPGKERELVADITSSGGSTYYADSVKGRFTISRDNAKNTVYLQMNSLKPEDTAVYYCAADGWWHNFYPGTGLDYWGQGTQVSVSS | low polyreactivity
QVQLVESGGGLVQAGGSLRLSCAASGRIFSIYAMGWYRQAPGKERELVAAITRGGRTNYADSVKGRFTISRDNAKNTVYLQMNSLKPEDTAVYYCAARRIDGVVKPYDYWGQGTQVTVSS | low polyreactivity
QVQLVESAGGLVQAGGSLRLSCAASGRIFSRYAMGWYRQAPGKERELVAAITQSGTSTYYADSVKGRFTISRDNAKNTVYLQMNSLKPEDTAVYYCNAYRQYRYDYWGQGTQVTVSS | low polyreactivity

Sequence | polyreactivity (PSR sort gate)
QVHLVDSGRGLVQAGGSLRLSCAASGSTFAEYVMGRYRQAPGKERELVASIDSGGGTNYADSVKGRFTISRDNAKNTVYLQMNSLKPEDTAVYYCAASGRDIGGYDYWGHGTQVTVSS | low polyreactivity
QVQLVESGGGLVQAGGSLRLSCAASGRIFRRNAMGWYRQAPGKEREFVATITSGGSTFYADSVKGRFTISRDNAKNTVYLQMNSLKPEDTAVYYCAAPSYNTPFHTPNYSWGQGTQVTVSS | low polyreactivity
QVQLVESGGGLVQAGGSLRLSCAASGSIIAGNVMGWYRQAPGKERELVAAISRRGGRTYYADSVKGRFTISRDNAKNTVYLQMNSLKPEDTAVYYCAARRDPVLGKSDFWGQGTQVTVSS | high polyreactivity
QVQLVESGGGLVQAGGSLRLSCAASGITFYGYAMGWYRHAPGKERELVATISSGGGTNYADSVKGRFTISRDNAKNTVYLQMNSLKPEDSAVYYCATDLSTVDYNYWGQGTQVTVSS | low polyreactivity
QVQLVESGGGLVQAGGSLRLSCAASGRTFKYYAMGWYRQAPGKERELVATISFRGGSTYYADSVKGRFTISRDNAKNTVYLQMNSLKPEDTSVYYCARRQWSRRPDDYWGQGTQVTVSS | high polyreactivity
QVQLVESGGGLVQAGGSLRLSCAASGRTILVYAMGWYRPAPGKERELVAAISSDGSTNYADSVKGRFTISRDNAMNTVYLQMNSLNPEDTAVYYCARDYYAVSYLYDYWGQGTQVTVSS | low polyreactivity
QVQLVESGGGLVQAGGSLRLSCAASGFTFPNYDMGWYRQAPGKERELVAAITSGGGRTNYADSVKGRFTISRDNAKNTVYFQMNSLKPEDTSVYFCAKTRVRGSEFGYWGQGTQLTVSS | low polyreactivity
QVQLVESGGGLVQAGGSLRLSCAASGITFGYYAMGWYRQAPGKERELVAAISSSGGSTYYADSVKGRFTISRDNAKNTVYLQMNSLKPEDTAVYFCAARYRKYSWYDYWGQGTQVTVSS | high polyreactivity
QVQRVESGGGLVQAGGSLRLSCAASGSIFFRNVMGWYRQAPGKERELVAAISSRGGSTYYADSVKGRFTISRDIAKNTVYLQMNSLKPEDTAVYYCATSHTPTYNYWGQGPQVTVSS | high polyreactivity
QVQLVESGGGLVQAGGSLRLSCAASGIIFYDYAMGWYRQAPGKERELVAAITSNGDNTYYADSVKGRFTISRDNAKNTVYLPMNSLKPEDTAVYYCAVDGSFAADFDNYLEEYGYWGQGTQVTVSS | low polyreactivity
QVQLVESGGGLVQAGCSLRLSCAASGRTFDSYTMGWYRQAPGKERELVAAIRSSGGRTYADSVKGRFTISRDNAKNTVYLQMNSLKPEDTAVYYCDADRRGSHYYRYKYGYWGQGTQVTVSS | high polyreactivity
QVQLVESGGGLVQAGGSLRLSCAASGSTFPGYAMGWYRQAPGKERELVAAITWSGVTTYYADTVKGRFTMSRDNAKNTVYIQMNSLKPEDTAVYYCATGTLYSDGAIYGYWGQATQVTVSS | low polyreactivity
QVQLVESWGGLVQAGGSLRLSCAASGFIFSSYGMGWYRQAPGKERELVADISGGGSTNYADSVKGRFTISRDNAKNTVYLQMISLNPEDTAVYYCNAQLIRSAAYDYWGQGTQVTVSS | low polyreactivity
QVQLVESGGGLVQAGGSLRLSCAASGFIFSGYTMGWYRQAPGKERELVAAITKRGGRTYYADSVKGRFTISRDNAKNTVYLQMNSLKPEDTAVYYCNVDVKVYSDETTDGDYWGQGTQVTVSS | high polyreactivity
QVQLVESGGGLVQAGGSRRLSCAASGIIFAYYAMGWYRQAPGKERELVASISSTGGSTYYADSVKGRFTISRDNAKNTVYLQMNSLKPEDTAVYYCAVDGLPPKDALHLYYYWGQVTQVTVSS | low polyreactivity
QVQLVESGGGLVQAGASLRLSCAASGSTFGGNAMGWSRQAPWKERELVAAINWTGGSTYADSVKGRFTISRDNAKNTVYLQMNRLKPEDTAVYYCAIRATWGSSTQYLQNQEYDYWGQGSQVTVSS | low polyreactivity
